We go through 39 variants from the RNAGym collection of RNA variant scans (doi:10.7554/elife.80360).

B1: CPEB3 Ribozyme (parent)
chain: GGGGGCCACAGCAGAAGCGUUCACGUCGCGGCCCCUGUCAGAUUCUGGUGAAUCUGCGAAUUCUGCUGU

The data set covers variants of B1. Kind of data set: self-cleavage, relative activity (ratio to wild type); higher = more cleavage; co-transcriptional.
As to GGGGACCACAGCAGAUGCGUUCACGUCGCGGCCCCUGUCAGAUUCUGGUGAAUCUGCGAAUUCUGCUGU [G5A A16U], the self-cleavage came to 0.639.
To GGGGACCACAGCAGAAGCGUUCACGUCGCGGCCCCUGUCAGUUUCUGGUGAAUCUGCGAAUUCUGCUGU [G5A A42U] belongs 0.71; to GGGGACCACAGCAGAAGCGUUCACGUCGCGGCCCCUGUCAGGUUCUGGUGAAUCUGCGAAUUCUGCUGU [G5A A42G], 0.812; to GGGGACCACAGCAGAAGCGUUCACGUCGCGGCCCCUGUCAGAUUCUGGUGUAUCUGCGAAUUCUGCUGU [G5A A51U], 0.859.
To GGGGACCACAGCAGAAGCGUUCACGUCGCGGCCCCUGUCAGAUUCUGGUGGAUCUGCGAAUUCUGCUGU [G5A A51G] belongs 0.849; to GGGGACCACAGCAGAAGCGUUCACGUCGCGGCCCCUGUCAGAUUCUGGUGCAUCUGCGAAUUCUGCUGU [G5A A51C], 0.82; to GGGGACCACAGAAGAAGCGUUCACGUCGCGGCCCCUGUCAGAUUCUGGUGAAUCUGCGAAUUCUGCUGU [G5A C12A], 0.532.
To GGGGACCACAGGAGAAGCGUUCACGUCGCGGCCCCUGUCAGAUUCUGGUGAAUCUGCGAAUUCUGCUGU [G5A C12G] belongs 0.488.
Take GGGGACCACAGCAGAAGCGUUCACGUCGCGGCCCCUGUCAGAUUCUGGUGAUUCUGCGAAUUCUGCUGU [G5A A52U]: the self-cleavage amounted to 0.891.
To GGGGACCACAGCAGAAGCGUUCACGUCGCGGCCCCUGUCAGAUUCUGGUGACUCUGCGAAUUCUGCUGU [G5A A52C] belongs 0.837; to GGGGACCACAGCAGAAGCGUUCACGUCGCGGCCCCUGUCAGAUUCUGGUGAGUCUGCGAAUUCUGCUGU [G5A A52G], 0.92; to GGGGACCACAGCAGAAGCGUUGACGUCGCGGCCCCUGUCAGAUUCUGGUGAAUCUGCGAAUUCUGCUGU [G5A C22G], 0.0902.
To GGGGACCACAGCAGAAGCGUUUACGUCGCGGCCCCUGUCAGAUUCUGGUGAAUCUGCGAAUUCUGCUGU [G5A C22U] belongs 0.129; to GGGGACCACAGCAGAAGCGUUCAAGUCGCGGCCCCUGUCAGAUUCUGGUGAAUCUGCGAAUUCUGCUGU [G5A C24A], 0.341; to GGGGACCACAGCAGAAGCGUUCAGGUCGCGGCCCCUGUCAGAUUCUGGUGAAUCUGCGAAUUCUGCUGU [G5A C24G], 0.0961.
To GGGGACCACAGCAGAAGCGUUCAUGUCGCGGCCCCUGUCAGAUUCUGGUGAAUCUGCGAAUUCUGCUGU [G5A C24U] belongs 0.378.
GGGGACCACAGCAGAAGCGUUCACGUCGCGGCCCCUGUCAGAUUCUGGUGAAUCUGCGCAUUCUGCUGU [G5A A59C]: the self-cleavage stood at 0.259.
The result for GGGGACCACAGCAGAAGCGUUCACGUCGCGGCCCCUGUCAGAUUCUGGUGAAUCUGCGGAUUCUGCUGU [G5A A59G] reads 0.753; that for GGGGACCACAGCAGAAGCGUUCACGUAGCGGCCCCUGUCAGAUUCUGGUGAAUCUGCGAAUUCUGCUGU [G5A C27A], 0.141; that for GGGGACCACAGCAGAAGCGUUCACGUGGCGGCCCCUGUCAGAUUCUGGUGAAUCUGCGAAUUCUGCUGU [G5A C27G], 0.104.
To GGGGACCACAGCAGAAGCGUUCACGUUGCGGCCCCUGUCAGAUUCUGGUGAAUCUGCGAAUUCUGCUGU [G5A C27U] belongs 0.201; to GGGGAACACAGCAGAAGCGUUCACGUCGCGGCCCCUGUCAGAUUCUGGUGAAUCUGCGAAUUCUGCUGU [G5A C6A], 0.103; to GGGGAUCACAGCAGAAGCGUUCACGUCGCGGCCCCUGUCAGAUUCUGGUGAAUCUGCGAAUUCUGCUGU [G5A C6U], 0.189.
The result for GGGGACCACAGCAGAAGUGUUCACGUCGCGGCCCCUGUCAGAUUCUGGUGAAUCUGCGAAUUCUGCUGU [G5A C18U] reads 0.483; that for GGGGACCACAGCAGAAGGGUUCACGUCGCGGCCCCUGUCAGAUUCUGGUGAAUCUGCGAAUUCUGCUGU [G5A C18G], 0.0833.
With GGGGACCAAAGCAGAAGCGUUCACGUCGCGGCCCCUGUCAGAUUCUGGUGAAUCUGCGAAUUCUGCUGU [G5A C9A], the self-cleavage was 1.01.
As to GGGGACCACAGCAGAAGCGUUCACGUCGUGGCCCCUGUCAGAUUCUGGUGAAUCUGCGAAUUCUGCUGU [G5A C29U], the self-cleavage came to 0.303.
The result for GGGGACCACAGCAGAAGCGUUCACGUCGAGGCCCCUGUCAGAUUCUGGUGAAUCUGCGAAUUCUGCUGU [G5A C29A] reads 0.229; that for GGGGACCACAGCAGAAGCGUUCUCGUCGCGGCCCCUGUCAGAUUCUGGUGAAUCUGCGAAUUCUGCUGU [G5A A23U], 0.931.
The result for GGGGACCACAGCAGAAGCGUUCACGUCGCGGCCCCUGUCGGAUUCUGGUGAAUCUGCGAAUUCUGCUGU [G5A A40G] reads 0.866; that for GGGGACCACAGCAGAAGCGUUCACGUCGCGGCCCCUGUCCGAUUCUGGUGAAUCUGCGAAUUCUGCUGU [G5A A40C], 0.213.
The result for GGGGACCACAGCAGAAGCGUUCACGUCGCGGACCCUGUCAGAUUCUGGUGAAUCUGCGAAUUCUGCUGU [G5A C32A] reads 0.847; that for GGGGACCACAGCAGAAGCGUUCACGUCGCGGCACCUGUCAGAUUCUGGUGAAUCUGCGAAUUCUGCUGU [G5A C33A], 0.296.
As to GGGGACCACAGCAGAAGCGUUCACGUCGCGGCCCCUGUCAGAUUCUGGUGAAUCUGCGACUUCUGCUGU [G5A A60C], the self-cleavage turned out to be 0.251.
To GGGGACCACAGCAGAAGCGUUCACGUCGCGGCCCCUGUCAGAUUCUGGUGAAUCUGCGAUUUCUGCUGU [G5A A60U] belongs 0.247; to GGGGACCACAGCAGAAGCGUUCACGUCGCGGCCCCUGUCAGAUUCUGGUGAAUCUGCGAGUUCUGCUGU [G5A A60G], 0.515.
To GGGGACUACAGCAGAAGCGUUCACGUCGCGGCCCCUGUCAGAUUCUGGUGAAUCUGCGAAUUCUGCUGU [G5A C7U] belongs 0.501; to GGGGACAACAGCAGAAGCGUUCACGUCGCGGCCCCUGUCAGAUUCUGGUGAAUCUGCGAAUUCUGCUGU [G5A C7A], 0.134; to GGGGACGACAGCAGAAGCGUUCACGUCGCGGCCCCUGUCAGAUUCUGGUGAAUCUGCGAAUUCUGCUGU [G5A C7G], 0.0847.
